From patent publication US20230331868A1 (Seagen, published 2023)

Assays:
[1] = biological target: T1, bovine submaxillary mucin (bovine); assay: ELISA on BSM-coated wells; antibody from one liter production
T1 construct: Natural mucin preparation; also called BSM
Procedure: (§1) For BSM ELISA analysis, antibodies were screened over a concentration range of 0 to 100 nM on bovine submaxillary mucin (BSM) coated wells. A subset of wells were treated with mild periodate solution before antibody binding to remove the side chain on terminal sialic acid residues (destroying the STn antigen). Optical densities of periodate and non-periodate-treated wells were determined and log transformed then fit to a nonlinear regression model to obtain a dose response curve. Optical density values obtained from periodate-treated wells were subtracted from non-periodate treated wells to obtain a periodate-sensitive STn binding curve and corresponding EC₅₀ values.
Based on the results of characterization experiments, two antibodies from each clone group were selected for one liter expression and resulting antibodies were tested again according to the same procedures (see results presented in the following Table).

[2] = biological target: T1, bovine submaxillary mucin; assay: ELISA on BSM-coated wells; periodate-sensitive signal
Procedure: as §1

| Binder | EC50 [1] [nM] | EC50 [2] [nM] |
| --- | --- | --- |
| Humanized 3F1 VL1,VH1 (antibody, V domains shown, also called Hu3F1,L1H1; Hu3F1 L1H1) VH: QVQLVQSGAEVKKPGASVKVSCKASGYTFTDHAIHWVRQAPGQGLEWMGYISPGNGDIKYNEKFKDRVTMTADKSSSTAYMQLRSLRSDDTAVYFCKRSLLALDYWGQGTLVTVSS VL: DIQMTQSPSSLSASVGDRVTITCKASQDVGTNIAWYQQKPGKAPKVLIYSASTRHTGVPSRFSGSGSGTDFTLTISSLQPEDFATYFCQQYSSFPLTFGQGTKVEIK | 0.86 | 1.8 |
| Humanized 2G12-2B2 VL2,VH2 (antibody, V domains shown, also called Hu2G12-2B2,L2H2; Hu2G12-2B2 L2H2) VH: QVQLVQSGAEVKKPGASVKISCKASGYTFTDHAIHWVRQAPGQGLEWIGYFSPGNDDIKYNEKFRGRVTLTADKSSSTAYMELRSLRSDDTAVYFCKRSLSTPYWGQGTLVTVSS VL: DIVMTQSPDSLAVSLGERVTMSCKSSQSLLNRGNHKNYLTWYQQKPGQPPKLLIYWASTRESGVPDRFSGSGSGTDFTLTISSLQAEDVAVYYCQNDYTYPYTFGQGTKVEIK | 1.82 | 2.9 |
